In assay [1] the target is HIV-1 CA A14C/E45C/W184A/M185A (HIV-1 (NL4-3)). The experiment in a line: SEC. For orientation: In gel filtration, larger molecules generally elute earlier.
For assay [2] the target is unchanged. The experiment in a line: cross-linking.

A word on the stoichiometry N: it is the number of molecules, sites or subunits per partner or assembly. In the case of “HIV-1 CA A14C/E45C/W184A/M185A (natural protein)”, the stoichiometry N in assay [1] and in assay [2] was 6 in each case.

The record behind these values is article PMC2840706.
